Measured values reported in article doi:10.1101/2021.03.09.434688.
Where “and” joins values, the source holds several entries; their conditions need not be identical. Identical values can stand only once.

Legend:
[1] = target: fluorophore-labeled minimal precursor peptide Fl_PsnA2(14-38); assay: fluorescence polarisation
[2] = target: fluorophore-labeled core peptide Fl_PsnA2(28-38); assay: fluorescence polarisation
[3] = target: MP variants with one or two Glu-to-Ala mutations; assay: fluorescence polarisation
PsnB = assay: crystal structure

| Substance | fold enhancement of the interaction with ADP (1 mM) against no nucleotide [1] | fold enhancement of the interaction with AMPPNP (1 mM) against no nucleotide [1] | fold tighter binding than the LP (Fl LP) [1] | Kd [2] | fold reduction of the affinity against MP [3] | stoichiometry N (PsnB) |
| --- | --- | --- | --- | --- | --- | --- |
| PsnB (enzyme) | 9 fold | 2 fold | 6 fold | > 100 µM | 10 fold and 4 fold | 2 |
| leader-fused PsnB (enzyme) |  |  |  | 11 µM |  |  |
